Measurements as given in patent publication US7067474B1, “Agents for treating human illnesses based on β-catenin, and the production and use thereof” (Max-Delbruck-Centrum fur Molekulare Medizin, priority 1998, dated 2006).
Numbering of substitutions follows the chain as printed. “Also recorded” adds a separate entry of the source.

B1: Arg 274: human β-catenin mutant, Arg 274 substituted by alanine (arm 4) (protein)
chain: LHNLSHHREGLLAIFKSGGIPALVKMLGSPVDSVLFYAITTLHNLLLHQEGAKMAVALAGGLQKMVALLNKTNVKFLAITTDCLQILAYGNQESKLIILASGGPQALVNIMRTYTYEKLLWTTSRVLKVLSVCSSNKPAIVEAGGMQALGLHLTDPSQRLVQNCLWTLRNLSDAATKQEGMEGLLGTLVQLLGSDDINVVTCAAGILSNLTCNNYKNKMMVCQVGGIEALVRTVLRAGDREDITEPAICALRHLTSRHQEAEMAQNAVRLHYGLPVVVKLLHPPSHWPLIKATVGLIRNLALCPANHAPLREQGAIPRLVQLLVRAHQDTQRRTSMGGTQQQFVEGVRMEEIVEGCTGALHILARDVHNRIVIRGLNTIPLFVQLLYSPIENIQRVAAGVLCELAQDKEAAEAIEAEGATAPLTELLHSRNEGVATYAAAVLFRMSEDKPQDYKKRLSVELTSSLFRTEPMAWNETADLGLDIGAQGEPLGYRQDDPSYRSFHSGGYGQDALGMDPMMEHEMGGHHPGADYPVDGLPDLGHAQDLMDGLPPGDSNQLAWFDTDL
modifications: left off: large carriers; small tags and cut ends
B2: Arg 342: human β-catenin mutant, Arg 342 substituted by alanine (arm 5) (protein)
chain: B1 chain with A57R, R125A
modifications: left off: large carriers; small tags and cut ends
B3: Arg 469: human β-catenin mutant, Arg 469 substituted by alanine (arm 8) (protein)
chain: B1 chain with A57R, R252A
modifications: left off: large carriers; small tags and cut ends
B4: Lys 345: human β-catenin mutant, Lys 345 substituted by alanine (arm 5) (protein)
chain: B1 chain with A57R, K128A
modifications: left off: large carriers; small tags and cut ends
B5: Lys 354: human β-catenin mutant, Lys 354 substituted by alanine (arm 6) (protein)
chain: B1 chain with A57R, K137A
modifications: left off: large carriers; small tags and cut ends
B6: His 260: human β-catenin mutant, His 260 substituted by alanine (arm 3) (protein)
chain: B1 chain with H43A, A57R
modifications: left off: large carriers; small tags and cut ends

molecular target: T1, LEF-1 (Mus musculus, UniProt P27782); experiment: yeast 2-hybrid: interaction of β-catenin mutants with LEF-1; assay type: binding; details: yeast 2-hybrid, alanine mutants
T1 construct: the cDNA of LEF-1 for the amino acids 1–99; expressed in transfected cells; host or cells: yeast (two-hybrid, Matchmaker, Clontech)
Procedure: (§1) The mutagenesis of β-catenin in the armadillo repeats 3–8 was carried out by means of the “mutagenesis kit” of the company Clontech according to the producer's record and the mutants were checked by sequencing (FIG. 5). In all mutants the original amino acid was substituted by alanine. For analyzing the interactions the cDNA of human β-catenin (armadillo repeat 3 up to the C-terminal end of the protein) coding for the amino acids Leu218–Leu7 μl or its mutants was cloned into the fusion vector for the activation domain of Gal-4 (pGAD424, Clontech). The cDNA for the binding domains of the interaction partners was cloned into the Lex-A fusion vector BTM 116. To this end, the cDNA of LEF-1 for the amino acids 1–99, conductin for the amino acids Ala342–ARG465; of human APC for the amino acids His1012–Glu1215 (APC 15 amino acid repeats) and for the amino acids Ser1259Asp 1400 (APC 20 amino acid repeats) and E-cadherin for the amino acids Gin773–Asp884 (cytoplasmatic domain) were amplified with the respective primers PCR. The interaction of the Lex-A hybrids with β-catenin and its mutants was quantified by means of the β-galactosidase reporter activity in the yeast 2-hybrid system (report: “Matchmaker”. Clontech) (Tab. 2 and FIG. 6).

T1 sequence (P27782 1-99): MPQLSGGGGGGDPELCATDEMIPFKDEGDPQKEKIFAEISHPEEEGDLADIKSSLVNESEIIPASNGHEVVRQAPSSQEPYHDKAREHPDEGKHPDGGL

| Molecule | Interaction With LEF-1, share of wild type β-catenin interaction |
| --- | --- |
| B1 | — (Interactions marked by — correspond to 60–100% of the wild type interaction) |
| B2 | — (Interactions marked by — correspond to 60–100% of the wild type interaction) |

same assay, conditions: β-catenin mutation, in words

| Molecule | interaction with LEF-1/TCF-4 |
| --- | --- |
| B3 | blocking the interaction; also recorded: no interaction with LEF-1/TCF-4 |

molecular target: T2, APC (15 amino acid repeats) (Homo sapiens, UniProt P25054); experiment: yeast 2-hybrid: interaction of β-catenin mutants with APC 15 amino acid repeats; assay type: binding; details: yeast 2-hybrid, alanine mutants
T2 construct: of human APC for the amino acids His1012–Glu1215 (APC 15 amino acid repeats); expressed in transfected cells; host or cells: yeast (two-hybrid, Matchmaker, Clontech)
T2 sequence (P25054 1006-1209 limits assumed): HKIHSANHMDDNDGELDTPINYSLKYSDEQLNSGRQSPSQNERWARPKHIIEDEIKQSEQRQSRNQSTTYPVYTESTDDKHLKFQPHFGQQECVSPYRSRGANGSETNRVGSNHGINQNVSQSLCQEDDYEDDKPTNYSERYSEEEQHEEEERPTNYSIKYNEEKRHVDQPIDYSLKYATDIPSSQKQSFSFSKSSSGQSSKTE
Procedure: as §1

| Molecule | Interaction With APC-15, share of wild type β-catenin interaction |
| --- | --- |
| B3 | — (Interactions marked by — correspond to 60–100% of the wild type interaction) |
| B1 | — (Interactions marked by — correspond to 60–100% of the wild type interaction) |
| B2 | — (Interactions marked by — correspond to 60–100% of the wild type interaction) |
| B4 | — (Interactions marked by — correspond to 60–100% of the wild type interaction) |
| B5 | 54% |

molecular target: T3, conductin (Mus musculus, UniProt O88566); experiment: yeast 2-hybrid: interaction of β-catenin mutants with conductin; assay type: binding; details: yeast 2-hybrid, alanine mutants
T3 construct: conductin for the amino acids Ala342–ARG465; expressed in transfected cells; host or cells: yeast (two-hybrid, Matchmaker, Clontech)
Procedure: as §1

T3 sequence (O88566 343-465 limits assumed): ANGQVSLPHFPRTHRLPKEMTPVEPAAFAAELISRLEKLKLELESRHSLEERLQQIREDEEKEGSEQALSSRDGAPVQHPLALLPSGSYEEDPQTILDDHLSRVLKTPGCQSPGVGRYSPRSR

| Molecule | Interaction With Conductin, share of wild type β-catenin interaction |
| --- | --- |
| B3 | — (Interactions marked by — correspond to 60–100% of the wild type interaction) |
| B1 | 29% |
| B2 | 20% |
| B4 | 22% |
| B5 | 43% |
| B6 | 10% |

same assay, conditions: β-catenin mutation, in words

| Molecule | interaction with conductin |
| --- | --- |
| B1 | no interaction with conductin |

molecular target: conductin amino acids Ala342-Arg465 fused to Lex-A (vector BTM 116) (UniProt P0A7C2); experiment: yeast 2-hybrid, β-galactosidase reporter; percent of wild type β-catenin; details: not given
Sequence (P0A7C2 other isoform, or with tags, fused parts or gaps limits assumed, form in doubt): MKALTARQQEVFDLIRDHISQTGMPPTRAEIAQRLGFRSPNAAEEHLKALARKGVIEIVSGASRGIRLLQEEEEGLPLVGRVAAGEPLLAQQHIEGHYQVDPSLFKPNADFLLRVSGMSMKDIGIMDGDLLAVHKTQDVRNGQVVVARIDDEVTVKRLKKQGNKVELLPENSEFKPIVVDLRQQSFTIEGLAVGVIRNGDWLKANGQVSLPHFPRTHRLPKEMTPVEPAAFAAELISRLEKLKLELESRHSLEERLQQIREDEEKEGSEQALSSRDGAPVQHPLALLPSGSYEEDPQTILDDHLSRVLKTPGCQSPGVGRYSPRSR

| Molecule | share of the interaction with wild type β-catenin in percent [%] |
| --- | --- |
| human β-catenin (Leu218-Leu781) mutant Arg 457 to alanine, Gal-4 activation domain fusion (from UniProt P35222 218-781) | 36 |
| human β-catenin (Leu218-Leu781) mutant Lys 394 to alanine, Gal-4 activation domain fusion (from UniProt P35222 218-781) | 42 |

molecular target: T4, APC (20 amino acid repeats) (Homo sapiens, UniProt P25054); experiment: yeast 2-hybrid: interaction of β-catenin mutants with APC 20 amino acid repeats; assay type: binding; details: yeast 2-hybrid, alanine mutants
T4 construct: for the amino acids Ser1259Asp 1400 (APC 20 amino acid repeats); expressed in transfected cells; host or cells: yeast (two-hybrid, Matchmaker, Clontech)
T4 sequence (P25054 1253-1394 limits assumed): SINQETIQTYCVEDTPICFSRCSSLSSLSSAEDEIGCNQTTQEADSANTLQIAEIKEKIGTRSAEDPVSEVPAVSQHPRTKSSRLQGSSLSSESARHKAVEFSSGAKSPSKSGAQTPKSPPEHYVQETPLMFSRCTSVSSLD
Procedure: as §1

| Molecule | Interaction With APC-20, share of wild type β-catenin interaction |
| --- | --- |
| B3 | — (Interactions marked by — correspond to 60–100% of the wild type interaction) |
| B1 | 40% |
| B2 | 29% |
| B4 | 0% |
| B5 | — (Interactions marked by — correspond to 60–100% of the wild type interaction) |
| B6 | 40% |
